Assay results reported in publication PMC5943514, “Substrate specificity of human MCPIP1 endoribonuclease” (Scientific Reports, 2018).

Molecular target: T1, MCPIP1 D141N (Regnase-1), full length (Homo sapiens, UniProt Q5D1E8 1-599, D141N)
T1 sequence: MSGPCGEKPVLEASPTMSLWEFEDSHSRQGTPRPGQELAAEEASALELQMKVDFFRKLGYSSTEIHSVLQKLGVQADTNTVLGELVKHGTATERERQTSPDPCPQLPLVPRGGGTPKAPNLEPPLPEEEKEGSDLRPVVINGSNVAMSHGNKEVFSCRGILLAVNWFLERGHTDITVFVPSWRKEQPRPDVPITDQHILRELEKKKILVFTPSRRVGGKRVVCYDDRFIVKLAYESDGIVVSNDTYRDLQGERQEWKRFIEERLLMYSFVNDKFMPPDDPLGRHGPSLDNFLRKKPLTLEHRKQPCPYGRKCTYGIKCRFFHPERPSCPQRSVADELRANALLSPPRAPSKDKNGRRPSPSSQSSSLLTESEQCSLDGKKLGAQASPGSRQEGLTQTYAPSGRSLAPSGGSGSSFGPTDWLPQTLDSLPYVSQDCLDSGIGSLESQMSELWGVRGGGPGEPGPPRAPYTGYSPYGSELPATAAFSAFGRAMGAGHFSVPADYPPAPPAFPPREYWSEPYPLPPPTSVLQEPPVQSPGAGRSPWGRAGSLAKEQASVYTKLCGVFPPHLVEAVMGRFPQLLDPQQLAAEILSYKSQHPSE
Assay: EMSA; apparent Kd, Hill analysis; 1% agarose, TBE; 25 mM Tris-HCl pH 7.9, 150 mM NaCl, 5% glycerol, 2.5 mM MgCl2, 1 mM DTT, 0.5 mM EDTA, 0.05 mM ZnCl2, 25 C; oligo 2 nM (full length) or 20 nM (PIN, PIN-ZF)
Details: protein: recombinant; tags: none stated (purified by ion exchange); chain copies: 2; label: 5' 6-FAM; hairpin

B1: mIL-6 82-106 5'FAM (structured_RNA)
RNA: UGUUGUUCUCUACGAAGAACUGACA
- Kd: 394 ± 45 nM
